This assay addresses G protein of RSV A/Long (ATCC Cat. No. VR-26), on virus (Respiratory syncytial virus A/Long) (UniProt P20895). In words: cell-based or functional assay.

G protein of RSV A/Long (ATCC Cat. No. VR-26), on virus (Respiratory syncytial virus A/Long), sequence (P20895 whole entry): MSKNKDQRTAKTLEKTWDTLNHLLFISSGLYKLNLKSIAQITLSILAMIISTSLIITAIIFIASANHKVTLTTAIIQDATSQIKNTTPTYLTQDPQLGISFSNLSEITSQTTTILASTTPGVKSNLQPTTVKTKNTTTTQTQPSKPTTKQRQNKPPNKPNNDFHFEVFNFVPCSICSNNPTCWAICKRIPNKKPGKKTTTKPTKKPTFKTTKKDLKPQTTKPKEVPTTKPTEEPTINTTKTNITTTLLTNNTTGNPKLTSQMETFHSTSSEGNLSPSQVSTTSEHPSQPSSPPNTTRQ

B1: CR9505 (an antibody based on 131-2G, comprising the heavy and light chain variable region of 131-2G, as disclosed in WO 2009/055711) (antibody, from another filing, V domains shown)
VH: EVQLQQSGPELVKPGTSVKISCKASGYSFTGFTMNWVKQSHGKNLEWFGLINPFNGNTGYNQKFKGKATLTVDKSSSTAFMELLSLTSEDSAVYYCARSGKSYDYEAWFTYWGQGTLVTVSA
VL: DIVMTQTTLSLPVSLGNQASISCRSSQTIVHTNGNTYLEWYLQKPGQSPKLLIYKVSNRFSGVPDRFSGSGSGTDFILNISRVEAEDLGVYYCFQGSHVPFTFGSGTKLEIKR
B1 returned a Neutralization IC50, plaque reduction assay, RSV A/Long of 18 ng/mL.

These data come from patent US20160145322A1.
